Laboratory results taken from article PMC6151752, “Characterization, Function, and Transcriptional Profiling Analysis of 3-Hydroxy-3-methylglutaryl-CoA Synthase Gene (GbHMGS1) towards Stresses and Exogenous Hormone Treatments in Ginkgo biloba” (Molecules : A Journal of Synthetic Chemistry and Natural …, 2017).

Substrate: CC(=O)CC(=O)SCCNC(=O)CCNC(=O)[C@H](O)C(C)(C)COP(=O)(O)OP(=O)(O)OC[C@H]1O[C@@H](n2cnc3c(N)ncnc32)[C@H](O)[C@@H]1OP(=O)(O)O
Assay: initial rate versus acetoacetyl-CoA concentration, Michaelis-Menten fit
Assay type: biochemical, Ginkgo biloba
Details: acetoacetyl-CoA varied 20-100 μM (Km lies far above the range); pH, temperature and acetyl-CoA concentration not given
Text: initial rate versus acetoacetyl-CoA concentration, Michaelis-Menten fit on GbHMGS1

B1: GbHMGS1 (Ginkgo biloba) (protein)
chain: MASHPENVGILAMDIYFPSTCVQQDALETFDGVSKGKYTIGLGQDCMAFCMDLEDVISMSLTVVSSLLDKYGIDPKRIGRLEVGSETVIDKSKSIKTWLMQIFEECGNSEIEGVDSTNACYGGTAALLNCVNWVESRSWDGRYGLVVSTDSAVYAEGPARPTGGAAAVAMLIGPNAPIVFESKYRGTHMSHAYDFYKPNLASEYPVVDGKLSQTCYLMGLDSCYKRFCNRFEEGEGRQFSLSDADYVAFHSPYNKLVQKSFARLLFNDFSRHASSVGKDAQEKLEPYAGLSDEDSYSSRELEKVSQQVARPLYDVKVQPSTLLPKQVGNMYTASLYAAFASIIHNEHDTLEGQRVLMFSYGSGLASTMFSLKIREGQHPFTLTNIADVMDVSSKLDSRHVLSPEDFMVNMKLMETLYGAKDFISCSDHNLLRSGTFYLTQVDSMYRRFYAQKVASPDDTHEKVKLANGIIHDQL
**Q.** B1 was tested. Which Km did it give?
**A.** Its Km is 689 ± 32.6 µM.

**Q.** And the Vmax?
**A.** Its Vmax is 0.0371 µM/min.

**Q.** And the kcat?
**A.** The kcat was 3.26 ± 0.218 s⁻¹.

**Q.** And the kcat/Km?
**A.** Its kcat/Km is 4670 ± 167 M⁻¹ s⁻¹.
